{"source": "patent US20220017623A1", "about": "“TREATMENT OF CANCER USING A CEA CD3 BISPECIFIC ANTIBODY AND A WNT SIGNALING INHIBITOR” (Hoffmann-La Roche Inc., priority 2019, published 2022)", "key": {"[1]": {"test_system": "CEA expressing metastatic CRCs", "conditions": "cited from earlier work"}, "[2]": {"test_system": "patient derived colorectal cancer organoids (PDOs)", "experiment": "allogeneic CD8 T cell co-culture assay with patient derived colorectal cancer organoids, GFP confluence growth assessment", "assay_type": "cell-based, human", "conditions": "20 nM", "description": "In order to assess the sensitivity of patient-derived colorectal cancer organoids (PDOs) to cibisatamab immunotherapy, eight patient derived colorectal cancer organoid lines with various cell surface CEA expression levels were generated and treated with cibisatamab (20 nM) or an untargeted control antibody (20 nM) during 10 days of co-culture with allogeneic CD8 T cells. CD8 T cells were isolated from allogeneic healthy donor peripheral blood mononuclear cells (PBMCs) by magnetic bead sorting and expanded in vitro with IL2 and CD3/CD28 beads for 7-14 days. GFP-tagged CRC PDO cells were then seeded in 96 well plates, T cells were added the following day and the co-cultures were imaged every 2-3 days on an automated 96 well plate fluorescence microscope. […] Co-culture with CD8 T cells without any antibody was included as a further control to enable the identification of alloreactive donor T cells.\nEight PDO lines were tested: three CEAhi PDOs (i.e. containing predominantly CEAhi cells; CRC-01, CRC-05, CRC-07), four PDOs with mixed CEA expression (i.e. containing large subpopulations of both CEAhi and CEAlo cells; CRC-02, CRC-03, CRC-04, CRC-08), and one CEAlo PDO (i.e. containing predominantly CEAlo cells; CRC-06).\nPDOs were harvested with TrypLE Express and neutralised with DMEM/F12 Ham medium (Sigma Aldrich) with 10% FBS. Cells were filtered through a 70 μm filter, counted and resuspended in phenol-red free RPMI medium (Thermo Fisher) supplemented with 10% FBS (Biosera), 1× Glutamax and 100 units penicillin-streptomycin. On day 0, 5000 tumor cells per well of a 96 well-plate (Corning Special Optics Microplate) were plated. CD8 T cells were added on day 1 at the indicated effector to target (E:T) ratios with 20 nM of cibisatamab or 20 nM of the untargeted negative control antibody DP47-TCB (both provided by Roche). Tumor cells without CD8 T cells and without antibody were also included as controls. All conditions were plated in triplicates and at least 3 different healthy donors were tested on each of the 8 PDOs.\nThe GFP confluence was quantified every 48h-72h over a 10-day period using the GFP confluence application on the Celigo Imaging Cytometer (Nexcelom Bioscience). GFP confluence analysis was able to track the growth of GFP positive PDO cells over multiple timepoints without erroneously counting the T cells in the co-culture. […] The main advantage of confluence analysis over measuring spheroid diameters is the ability to track even the growth of PDOs showing highly variable shapes. Growth curves were generated with CD8 T cells from three different healthy blood donors. […]"}}, "note": "Read-outs that look alike come from different tables or passages of the source.", "data": [{"molecule": "cibisatamab (antibody, chains of the INN, looked up, V domains shown) VH: QVQLVQSGAEVKKPGASVKVSCKASGYTFTEFGMNWVRQAPGQGLEWMGWINTKTGEATYVEEFKGRVTFTTDTSTSTAYMELRSLRSDDTAVYYCARWDFAYYVEAMDYWGQGTTVTVSS VL: DIQMTQSPSSLSASVGDRVTITCKASAAVGTYVAWYQQKPGKAPKLLIYSASYRKRGVPSRFSGSGSGTDFTLTISSLQPEDFATYYCHQYYTYPLFTFGQGTKLEIK VH2: QVQLVQSGAEVKKPGASVKVSCKASGYTFTEFGMNWVRQAPGQGLEWMGWINTKTGEATYVEEFKGRVTFTTDTSTSTAYMELRSLRSDDTAVYYCARWDFAYYVEAMDYWGQGTTVTVSS VL2: QAVVTQEPSLTVSPGGTVTLTCGSSTGAVTTSNYANWVQEKPGQAFRGLIGGTNKRAPGTPARFSGSLLGGKAALTLSGAQPEDEAEYYCALWYSNLWVFGGGTKLTVL", "values": [{"measurement": "patients with radiological shrinkage (antitumor activity)", "setting": "[1]; in combination with PD-L1-inhibiting antibodies, 5/10 patients", "value": 50, "unit": "%"}, {"measurement": "patients with radiological shrinkage (antitumor activity)", "setting": "[1]; monotherapy, metastatic CRC after at least two prior chemotherapy regimens, 4/36 patients", "value": 11, "unit": "%"}, {"measurement": "growth inhibition", "setting": "[2]; CEAhi PDOs (CRC-01, CRC-05, CRC-07), CD8 T cells E:T 2:1, 7-10 days, versus DP47-TCB control", "value": "89-100%"}, {"measurement": "reduction of the cancer cell growth rate compared to controls", "setting": "[2]; four PDOs with mixed CEA expression (CRC-02, CRC-03, CRC-04, CRC-08), E:T 2:1", "value": "only a moderate reduction of the cancer cell growth rate"}, {"measurement": "sensitivity to treatment with CD8 T cells and antibody", "setting": "[2]; predominantly CEAlo PDO CRC-06, E:T 2:1", "value": "showed resistance"}, {"measurement": "sensitivity to treatment with CD8 T cells and antibody", "setting": "[2]; three CEAhi PDOs, E:T 2:1", "value": "highly sensitive"}]}]}
